From article PMC4131202 (Current biology : CB, 2013)

Target: muscle actin filaments (UniProt P68135 1-377)
Test: co-sedimentation

B1: GST-Pan1(1633-1794), C-terminal fragment of fission yeast Pan1p including the A, PP and W domains (domain or fragment)
chain: PPAPSPLQPSGHDSDNWSQHGDEEEEDSEDDIRSSKDAAALAAKLFGGMAPAHPVSTPPVRPQSAAPPQMSAPTPPPPPMSVPPPPSAPPMPAGPPSAPPPPLPASSAPSVPNPGDRSALLQQIHTGTRLKKTVTTDKSKPIAGRVLDASDGNSSAWYGNLS
Kd: 2.9 µM
